Columns and labels:
[1] = biological target: T1, Lin28-CSD (Homo sapiens, UniProt Q9H9Z2 32-136); test: NMR (1H-15N HSQC); 298 K; EMSA: 20 mM Tris pH 7.6, 40 mM NaCl, 0.5 mM DTT, room temperature, 30 min; NMR: 50 mM potassium phosphate pH 7.0, 50 uM 15N-protein, 298 K (C10) or 303 K (C20); conditions: protein: recombinant; tags: His6
T1 sequence: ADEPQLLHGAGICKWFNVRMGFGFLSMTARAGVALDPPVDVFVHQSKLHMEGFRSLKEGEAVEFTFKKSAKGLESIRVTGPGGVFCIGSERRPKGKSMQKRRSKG

[2] = biological target: YB-1-CSD (Homo sapiens, UniProt P67809 1-180); test: NMR (1H-15N HSQC); 298 K; spectra stated as already published (ref 7); EMSA: 20 mM Tris pH 7.6, 40 mM NaCl, 0.5 mM DTT, room temperature, 30 min; NMR: 50 mM potassium phosphate pH 7.0, 50 uM 15N-protein, 298 K (C10) or 303 K (C20); conditions: protein: recombinant
Chain of YB-1-CSD (P67809 1-180): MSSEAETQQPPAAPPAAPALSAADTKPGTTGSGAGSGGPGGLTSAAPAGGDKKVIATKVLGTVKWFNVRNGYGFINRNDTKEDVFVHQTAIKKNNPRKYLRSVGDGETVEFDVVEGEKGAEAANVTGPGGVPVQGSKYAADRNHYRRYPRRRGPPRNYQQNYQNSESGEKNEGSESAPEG

CCCCCCCCCC (ssDNA) [poly(C) DNA C10]: binds [1]; binds [2].

Source: PMC7979924, “Lin28, a major translation reprogramming factor, gains access to YB-1-packaged mRNA through its cold-shock domain”
